Consider 94 variants from the supplement of paper PMC10567573.

B1: WDR88 (parent)
chain: LLTITKAHSNAISNCCFTFSGHFL
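Note: lentivirally expressed fusions sorted by FACS into six bins by GFP to DsRed ratio, PSI derived from sequencing read proportions per bin multiplied by bin number.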

Variants of B1 are the subject of the data set. The experiment in a line: protein stability index of a GFP-peptide fusion (GPS, HEK-293T) (PSI 1-6); higher = more stable. The note with it: c terminus: a fixed tail appended.
Turning to LLTITKAHSNAISNCCGTFSGHFL [F17G], the protein stability index was determined as 1.69.

LLTITKAHSNAISNCCSTFSGHFL [F17S]: the protein stability index was determined as 1.37.

Regarding LLTITKAHSNAISNCCATFSGHFL [F17A], the protein stability index turned out to be 2.38.

As for LLTITKAHSNAISNCCVTFSGHFL [F17V], the protein stability index amounted to 2.88.

In the case of LLTITKAHSNAISNCCITFSGHFL [F17I], the protein stability index was 3.65.

For LLTITKAHSNAISNCCDTFSGHFL [F17D], the protein stability index was 1.92.

Consider LLTITKAHSNAISNCCTTFSGHFL [F17T], for which the protein stability index turned out to be 2.66.

For the variant LLTITKAHSNAISNCCPTFSGHFL [F17P], the protein stability index came out at 2.13.

For the variant LLTITKAHSNAISNCCETFSGHFL [F17E], the protein stability index stood at 2.35.

Consider LLTITKAHSNAISNCCQTFSGHFL [F17Q], for which the protein stability index worked out at 2.58.

In the case of LLTITKAHSNAISNCCMTFSGHFL [F17M], the protein stability index is 2.29.

Take LLTITKAHSNAISNCCCTFSGHFL [F17C]: the protein stability index turned out to be 1.84.

LLTITKAHSNAISNCCNTFSGHFL [F17N]: the protein stability index came to 2.58.

In the case of LLTITKAHSNAISNCCHTFSGHFL [F17H], the protein stability index amounted to 1.42.

Consider LLTITKAHSNAISNCCLTFSGHFL [F17L], for which the protein stability index came to 3.73.

As for LLTITKAHSNAISNCCKTFSGHFL [F17K], the protein stability index was 2.43.

For LLTITKAHSNAISPCCFTFSGHFL [N14P], the protein stability index was found to be 3.55.

With LLTITKAHSNAISACCFTFSGHFL [N14A], the protein stability index was 1.44.

For LLTITKAHSNAISMCCFTFSGHFL [N14M], the protein stability index is 2.99.

In the case of LLTITKAHSNAISQCCFTFSGHFL [N14Q], the protein stability index was determined as 1.82.

As to LLTITKAHSNAISSCCFTFSGHFL [N14S], the protein stability index was 2.39.

In the case of LLTITKAHSNAISCCCFTFSGHFL [N14C], the protein stability index was found to be 3.23.

As for LLTITKAHSNAISGCCFTFSGHFL [N14G], the protein stability index came out at 3.72.

For the variant LLTITKAHSNAISVCCFTFSGHFL [N14V], the protein stability index amounted to 2.52.

As to LLTITKAHSNAISKCCFTFSGHFL [N14K], the protein stability index turned out to be 2.63.

LLTITKAHSNAISDCCFTFSGHFL [N14D]: the protein stability index is 3.07.

Turning to LLTITKAHSNAISHCCFTFSGHFL [N14H], the protein stability index was 3.22.

Consider LLTITKAHSNAISLCCFTFSGHFL [N14L], for which the protein stability index worked out at 4.15.

With LLTITKAHSNAISECCFTFSGHFL [N14E], the protein stability index came to 2.25.

Consider LLTITKAHSNAISICCFTFSGHFL [N14I], for which the protein stability index is 3.89.

On to LLTITKAHSNAISFCCFTFSGHFL [N14F], for which the protein stability index is 3.06.

On to LLTITKAHSNAISWCCFTFSGHFL [N14W], for which the protein stability index is 2.37.

Take LLTITKAHSNAISTCCFTFSGHFL [N14T]: the protein stability index was 2.94.

With LLTITKAHSNAISYCCFTFSGHFL [N14Y], the protein stability index is 2.53.

For the variant LLTITKAHSNAIWNCCFTFSGHFL [S13W], the protein stability index came to 3.57.

As for LLTITKAHSNAIPNCCFTFSGHFL [S13P], the protein stability index was 3.02.

On to LLTITKAHSNAIRNCCFTFSGHFL [S13R], for which the protein stability index was 2.7.

On to LLTITKAHSNAIFNCCFTFSGHFL [S13F], for which the protein stability index is 3.89.

As for LLTITKAHSNAIHNCCFTFSGHFL [S13H], the protein stability index came out at 3.44.

For LLTITKAHSNAIANCCFTFSGHFL [S13A], the protein stability index came to 2.17.

LLTITKAHSNAITNCCFTFSGHFL [S13T]: the protein stability index amounted to 3.02.

With LLTITKAHSNAIVNCCFTFSGHFL [S13V], the protein stability index is 2.2.

Turning to LLTITKAHSNAIENCCFTFSGHFL [S13E], the protein stability index was 2.6.

Regarding LLTITKAHSNAILNCCFTFSGHFL [S13L], the protein stability index came out at 3.23.

For the variant LLTITKAHSNAIKNCCFTFSGHFL [S13K], the protein stability index worked out at 2.03.

Regarding LLTITKAHSNAIYNCCFTFSGHFL [S13Y], the protein stability index was found to be 2.48.

As for LLTITKAHSNAIDNCCFTFSGHFL [S13D], the protein stability index worked out at 2.2.

As for LLTITKAHSNAIGNCCFTFSGHFL [S13G], the protein stability index turned out to be 2.7.

With LLTITKAHSNAINNCCFTFSGHFL [S13N], the protein stability index was 2.6.

LLTITKAHSNAIQNCCFTFSGHFL [S13Q]: the protein stability index worked out at 3.54.

Take LLTITKAHSNAIMNCCFTFSGHFL [S13M]: the protein stability index came to 3.08.

LLTITKAHSNAICNCCFTFSGHFL [S13C]: the protein stability index was 2.35.

Regarding LLTITKAHSNAIINCCFTFSGHFL [S13I], the protein stability index is 3.51.

LLTITKAHSNAISNDCFTFSGHFL [C15D]: the protein stability index turned out to be 1.84.

As for LLTITKAHSNAISNKCFTFSGHFL [C15K], the protein stability index was determined as 2.11.

As to LLTITKAHSNAISNMCFTFSGHFL [C15M], the protein stability index was 2.19.

For the variant LLTITKAHSNAISNICFTFSGHFL [C15I], the protein stability index turned out to be 3.44.

Regarding LLTITKAHSNAISNVCFTFSGHFL [C15V], the protein stability index turned out to be 3.3.

Take LLTITKAHSNAISNWCFTFSGHFL [C15W]: the protein stability index is 2.31.

With LLTITKAHSNAISNSCFTFSGHFL [C15S], the protein stability index worked out at 2.97.

In the case of LLTITKAHSNAISNPCFTFSGHFL [C15P], the protein stability index came out at 2.19.

For the variant LLTITKAHSNAISNECFTFSGHFL [C15E], the protein stability index is 2.58.

Regarding LLTITKAHSNAISNFCFTFSGHFL [C15F], the protein stability index was determined as 3.46.

For LLTITKAHSNAISNNCFTFSGHFL [C15N], the protein stability index stood at 2.98.

Turning to LLTITKAHSNAISNLCFTFSGHFL [C15L], the protein stability index was determined as 2.27.

For the variant LLTITKAHSNAISNACFTFSGHFL [C15A], the protein stability index stood at 4.06.

In the case of LLTITKAHSNAISNQCFTFSGHFL [C15Q], the protein stability index was determined as 3.52.

As to LLTITKAHSNAISNGCFTFSGHFL [C15G], the protein stability index turned out to be 2.42.

On to LLTITKAHSNAISNHCFTFSGHFL [C15H], for which the protein stability index came out at 2.78.

In the case of LLTITKAHSNAISNRCFTFSGHFL [C15R], the protein stability index amounted to 3.77.

On to LLTITKAHSNAISNTCFTFSGHFL [C15T], for which the protein stability index amounted to 3.89.

On to LLTITKAHSNAISNYCFTFSGHFL [C15Y], for which the protein stability index was found to be 2.88.

For LLTITKAHSNAISNCKFTFSGHFL [C16K], the protein stability index came to 2.37.

Consider LLTITKAHSNAISNCLFTFSGHFL [C16L], for which the protein stability index is 3.05.

Regarding LLTITKAHSNAISNCSFTFSGHFL [C16S], the protein stability index is 2.44.

With LLTITKAHSNAISNCAFTFSGHFL [C16A], the protein stability index was found to be 3.4.

Take LLTITKAHSNAISNCYFTFSGHFL [C16Y]: the protein stability index was found to be 2.18.

On to LLTITKAHSNAISNCTFTFSGHFL [C16T], for which the protein stability index was found to be 2.9.

For LLTITKAHSNAISNCPFTFSGHFL [C16P], the protein stability index is 2.25.

Regarding LLTITKAHSNAISNCEFTFSGHFL [C16E], the protein stability index is 2.9.

For LLTITKAHSNAISNCRFTFSGHFL [C16R], the protein stability index worked out at 1.87.

Turning to LLTITKAHSNAISNCGFTFSGHFL [C16G], the protein stability index turned out to be 2.75.

With LLTITKAHSNAISNCVFTFSGHFL [C16V], the protein stability index stood at 1.95.

Regarding LLTITKAHSNAISNCHFTFSGHFL [C16H], the protein stability index worked out at 2.61.

For the variant LLTITKAHSNAISNCDFTFSGHFL [C16D], the protein stability index worked out at 2.33.

With LLTITKAHSNAISNCQFTFSGHFL [C16Q], the protein stability index was 2.41.

LLTITKAHSNAISNCFFTFSGHFL [C16F]: the protein stability index is 3.35.

As to LLTITKAHSNAISNCNFTFSGHFL [C16N], the protein stability index worked out at 4.12.

For the variant LLTITKAHSNAISNCMFTFSGHFL [C16M], the protein stability index is 3.28.

Consider LLTITKAHSNAISNCIFTFSGHFL [C16I], for which the protein stability index was determined as 2.8.

For LLTITKAHSNATSNCCFTFSGHFL [I12T], the protein stability index worked out at 2.98.

As for LLTITKAHSNASSNCCFTFSGHFL [I12S], the protein stability index came out at 3.14.

Turning to LLTITKAHSNAVSNCCFTFSGHFL [I12V], the protein stability index was determined as 3.69.

LLTITKAHSNAYSNCCFTFSGHFL [I12Y]: the protein stability index amounted to 2.33.
